Results on four molecules are retold here after patent US20220411520A1 (GMAX BIOPHARM, published 2022).

Test [1] addresses T1, human gastric inhibitory polypeptide receptor (hGIPR) (human, UniProt P48546 22-466).
T1 construct: Stably expressed on CHO-DHFR- cells from a pTM15 plasmid; also called human GIPR; human GIP receptor
T1 sequence: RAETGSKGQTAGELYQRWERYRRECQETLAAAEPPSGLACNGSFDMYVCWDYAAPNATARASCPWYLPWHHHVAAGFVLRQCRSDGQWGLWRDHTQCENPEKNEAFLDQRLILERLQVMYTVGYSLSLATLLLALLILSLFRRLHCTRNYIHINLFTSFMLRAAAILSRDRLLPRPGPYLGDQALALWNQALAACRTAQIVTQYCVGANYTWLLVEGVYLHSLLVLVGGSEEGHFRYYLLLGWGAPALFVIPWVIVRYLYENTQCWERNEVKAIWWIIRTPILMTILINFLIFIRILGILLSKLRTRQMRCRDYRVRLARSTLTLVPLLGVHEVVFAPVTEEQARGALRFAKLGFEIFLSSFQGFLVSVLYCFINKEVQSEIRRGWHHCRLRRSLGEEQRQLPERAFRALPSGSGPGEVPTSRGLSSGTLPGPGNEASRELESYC
Kind of test: FACS on CHO-DHFR-hGIPR cells. On the procedure:
PBS containing 10 mM EDTA was used to detach the CHO-DHFR-hGIPR cells and 10⁵ cells/tube was distributed into 1.5 mL EP tubes, and the supernatant was removed after centrifugation. The negative control sample was resuspended with a loading buffer (PBS, 2% FBS). For the positive control, 200 μL GIPR antibody solution of specific concentration was added to the cells and incubated at room temperature; after incubation, the cells were then centrifuged at 1500 rpm to remove the supernatant, washed with a FACS loading buffer and centrifuged again. The cells were resuspended with addition (200 μL/well) of a FITC labeled goat anti-mouse fluorescent antibody or PE labeled goat anti-human fluorescent antibody at 1:50 dilution and incubated at room temperature for 30 min in the dark. The supernatant was removed after centrifugation, and cells were washed with FACS loading buffer, centrifuged again and resuspended with the loading buffer for FACS analysis. The recombinant anti-hGIPR functional antibody specifically binds to GIPR-expressing CHO-DHFR-GIPR cells.

The target in test [2] is T2, monkey GIP receptor (maGIPR) (monkey, UniProt P48546 22-466 (human entry), limits assumed).
T2 chain: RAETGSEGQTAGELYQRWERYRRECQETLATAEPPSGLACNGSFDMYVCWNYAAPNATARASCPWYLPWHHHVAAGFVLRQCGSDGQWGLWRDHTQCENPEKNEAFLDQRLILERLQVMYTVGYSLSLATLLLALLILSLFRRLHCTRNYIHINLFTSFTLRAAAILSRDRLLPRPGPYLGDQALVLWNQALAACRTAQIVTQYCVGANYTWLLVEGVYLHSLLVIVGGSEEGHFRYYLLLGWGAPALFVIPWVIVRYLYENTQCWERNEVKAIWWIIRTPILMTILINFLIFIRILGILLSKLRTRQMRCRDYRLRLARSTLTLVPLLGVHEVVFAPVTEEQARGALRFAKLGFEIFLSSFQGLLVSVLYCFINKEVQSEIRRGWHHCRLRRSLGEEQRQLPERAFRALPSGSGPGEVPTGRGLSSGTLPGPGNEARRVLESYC
Briefly: cell-based or functional assay.

Test [3] has as its target human GLP-1 receptor (hGLP-1R) (human, UniProt P43220 24-463). Kind of test: cell-based or functional assay.
Test [4] addresses T1, human gastric inhibitory polypeptide …. Kind of test: cell-based or functional assay.
For test [5], the target named is T3, human gastric inhibitory polypeptide receptor (hGIPR) (human) (UniProt P48546).
T3 sequence: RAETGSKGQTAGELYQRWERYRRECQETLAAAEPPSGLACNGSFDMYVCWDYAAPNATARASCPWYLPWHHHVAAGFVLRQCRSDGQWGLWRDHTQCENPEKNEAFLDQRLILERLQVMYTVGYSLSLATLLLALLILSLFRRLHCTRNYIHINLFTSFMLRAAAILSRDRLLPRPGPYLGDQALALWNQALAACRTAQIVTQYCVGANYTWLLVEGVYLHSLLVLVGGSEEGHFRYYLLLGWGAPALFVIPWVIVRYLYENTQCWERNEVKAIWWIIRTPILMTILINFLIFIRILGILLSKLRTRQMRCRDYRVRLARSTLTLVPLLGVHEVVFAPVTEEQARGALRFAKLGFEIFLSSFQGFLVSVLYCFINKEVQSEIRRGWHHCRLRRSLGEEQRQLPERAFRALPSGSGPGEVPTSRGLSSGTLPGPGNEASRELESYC
Kind of test: cell-based or functional assay.

B1: hGIPR antibody L10H8 (antibody, V domains shown)
VH: QVQLQQSGAEVKKPGSSVKVSCKASGGTFSSYAISWVRQAPGQGLEWMGGIIPTFGTANYAQKFQGRVTITADESTSTAYMELSSLRSEDTAVYYCAQGPIVGAPTDYWGKGTLVTVSS
VL: SYVLTQPPSASGTPGQRVAISCSGSNSNIGSNTVHWYQQLPGAAPKLLIYSNNQRPSGVPDRFSGSNSGTSASLAISRLQSEDEADYYCAAWDDSLNGVVFGGGTKVTVL
notes: Recombinantly expressed whole antibody; also called recombinant anti-hGIPR functional antibody
As to B1, in test [1], the binding result was “binds”.

B2: GIPR antibody/GLP-1 fusion protein GLP-1-Linker-V1W5 (other)
light: HGEGTFTSDVSSYLEGQAAKEFIAWLVKGGGGGSGGGGSGGGGSDIVLTQSPASLAVSPGQRATITCRASQSVNTAVYSYIHWYQQKPGQPPKLLIKYASNLESGVPARFSGSGSGTDFTLTINPVEANDAANYYCQHSFDFPYTFGGGTKVEIKRTVAAPSVFIFPPSDEQLKSGTASVVCLLNNFYPREAKVQWKVDNALQSGNSQESVTEQDSKDSTYSLSSTLTLSKADYEKHKVYACEVTHQGLSSPVTKSFNRGEC
heavy: QVQLQESGPGLVKPSQTLSLTCTVSGYSITSDYAWNWIRQPPGKGVEWMGYISYRGIATYKPSLKSRITISRDTSKNQFSLKLSSVTAADTAVYYCVRGEYGPGNFDFWGQGTTVTVSSASTKGPSVFPLAPCSRSTSESTAALGCLVKDYFPEPVTVSWNSGALTSGVHTFPAVLQSSGLYSLSSVVTVPSSSLGTKTYTCNVDHKPSNTKVDKRVESKYGPPCPPCPAPEAAGGPSVFLFPPKPKDTLYITREPEVTCVVVDVSQEDPEVQFNWYVDGVEVHNAKTKPREEQFNSTYRVVSVLTVLHQDWLNGKEYKCKVSNKGLPSSIEKTISKAKGQPREPQVYTLPPSQEEMTKNQVSLTCLVKGFYPSDIAVEWESNGQPENNYKTTPPVLDSDGSFFLYSRLTVDKSRWQEGNVFSCSVMHEALHNHYTQKSLSLSLG
B2: in test [2], the “direct cAMP assay: inhibition of GIP-activated monkey GIPR signaling (IC50)” value turned out to be 4.3 nM. Further, the “reporter gene assay (CRE-Luciferase) in CHO-DHFR- cells co-expressing hGLP-1R: activation (EC50)” value in test [3] came to 0.0174 nM. For the same molecule, the “direct cAMP assay: inhibition of GIP-activated hGIPR signaling in CHO-DHFR cells stably expressing human GIPR (IC50)” value in test [4] came to 7.03 nM.

B3: GIPR antibody/GLP-1 fusion protein GLP-1-Linker-L7H6 (protein, part only; not given: heavy and light constant regions, not shown: a dimerising Fc or GST)
light, part: HGEGTFTSDVSSYLEGQAAKEFIAWLVKGGGGGSGGGGSGGGGSDIVLTQSPASLAVSPGQRATITCRASQSVNTAVYSYIHWYQQKPGQPPKLLIKYASNLESGVPARFSGSGSGTDFTLTINPVEANDAANYYCQHSFDFPYTFGGGTKVEIKR
heavy, part: QVQLQESGPGLVKPSQTLSLTCTVSGYSITSDYAWNWIRQPPGKGVEWMGYISYRGIATYKPSLKSRITISRDTSKNQFSLKLSSVTAADTAVYYCVRGEYGPGNFDFWGQGTTVTVSS
For B3, the reporter gene assay (CRE-Luciferase) in CHO-DHFR- cells co-expressing hGLP1R: activation (EC50) in test [3] came out at 0.04 nM. The molecule further registered a direct cAMP assay: inhibition of GIP-activated hGIPR signaling in CHO-DHFR cells stably expressing human GIPR (IC50) in test [5] of 14.9 nM.

B4: hGIPR antibody L7H6 (antibody, V domains shown)
VH: QVQLQESGPGLVKPSQTLSLTCTVSGYSITSDYAWNWIRQPPGKGVEWMGYISYRGIATYKPSLKSRITISRDTSKNQFSLKLSSVTAADTAVYYCVRGEYGPGNFDFWGQGTTVTVSS
VL: DIVLTQSPASLAVSPGQRATITCRASQSVNTAVYSYIHWYQQKPGQPPKLLIKYASNLESGVPARFSGSGSGTDFTLTINPVEANDAANYYCQHSFDFPYTFGGGTKVEIKR
For the molecule B4, in test [4], the “direct cAMP assay: inhibition of GIP-activated hGIPR signaling in CHO-DHFR cells stably expressing human GIPR (IC50)” value is 7.6 nM.
